Where a chain is given by its changes, count along the chain named. Numbers in names are those of the source. Where two headings read alike, the source gives them in different places.
T1: human OX40L protein (OX40L-his), Acro Biosystems Cat #OXL-H52Q8 (human, UniProt P23510 51-183)
T1 sequence: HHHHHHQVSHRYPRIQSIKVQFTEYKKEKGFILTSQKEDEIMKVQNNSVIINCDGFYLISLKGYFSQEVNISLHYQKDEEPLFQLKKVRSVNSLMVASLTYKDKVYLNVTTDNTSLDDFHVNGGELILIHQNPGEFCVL

B1: bispecific antibody 02C09-TNFαi HC (bispecific antibody)
heavy: not shown
light: DIQMTQSPSSLSASLGDRVTITCRASQSIGRWLAWYQQKPGNAPKLLIYKATILESGVPSRFSGSGSGTEFALTISSLQPDDFSAYYCQQYNSYPYTFGQGTKLEIKRTVAAPSVFIFPPSDEQLKSGTASVVCLLNNFYPREAKVQWKVDNALQSGNSQESVTEQDSKDSTYSLSSTLTLSKADYEKHKVYACEVTHQGLSSPVTKSFNRGEC
B2: bispecific antibody Hu3F07-TNFαi HC (bispecific antibody)
heavy: not shown
light: DIVMTQSPLSLPVTLGEPASISCRSSQSLVHSNGNTYLHWYLQKPGQSPQLLIYKVSNRFSGVPDRFSGSGSGTDFTLKISRVEAEDVGVYYCSQSTHVPPTFGGGTKLEIKRTVAAPSVFIFPPSDEQLKSGTASVVCLLNNFYPREAKVQWKVDNALQSGNSQESVTEQDSKDSTYSLSSTLTLSKADYEKHKVYACEVTHQGLSSPVTKSFNRGEC
B3: bispecific antibody I3F07-TNFαi HC (bispecific antibody)
heavy: not shown
light: B2 light with M4L, T14S, E17D, P18Q, Q50K, V88L, Y92F, T107S
B4: anti-OX40L antibody Hu3F07 (antibody, human IgG4 S228P, kappa, V domains shown)
VH: QVQLVQSGAEVKKPGASVKVSCKASGFTFPDYWMHWVRQAPGQGLEWMGEIDPPNGRTNYNEKFKSRVTMTRDTSISTAYMELSRLRSDDTAVYYCARGIYYVDYWGQGTTVTVSS
VL: DIVMTQSPLSLPVTLGEPASISCRSSQSLVHSNGNTYLHWYLQKPGQSPQLLIYKVSNRFSGVPDRFSGSGSGTDFTLKISRVEAEDVGVYYCSQSTHVPPTFGGGTKLEIKR
notes: Humanized; IgG4 S228P / kappa
B5: anti-OX40L antibody 10H07 (antibody, human IgG4 S228P, kappa, V domains shown)
VH: QVYLQQSGAELVKPGASVKLSCKASGYTFTDYWMHWVKQRPGQGLEWIGEIDPGNGRTNYNEKFKNKATLSVDKSSNTAYMQFSSLTSEDSAVFYCASEGAGRGFPYWGQGTLVTVSA
VL: B4 VL with I2V, M4L, S7T, T14S, E17D, P18Q, Q50K, V88L, Y92F, P101W
notes: Chimeric; IgG4 S228P / kappa
B6: anti-OX40L antibody 21G07 (antibody, human IgG4 S228P, kappa, V domains shown)
VH: QVQLQQSGAELVKPGASVKLSCKASGYTFTNYWMQWVKQRPGQGLEWIGEIDPSDGRTNYNEKFKNKATLTVDRSSSTAYIKLSSLTSEDSAVYYCAREVSLRSMDYWGQGTSVTVSS
VL: B4 VL with M4L, T14S, E17D, P18Q, Q50K, V88L, Y92F, P101F, G105S
notes: Chimeric; IgG4 S228P / kappa
B7: reference anti-OX40L antibody O4L (VH and VL of oxelumab) (antibody, human IgG4 S228P, kappa, V domains shown)
VH: EVQLLESGGGLVQPGGSLRLSCAASGFTFNSYAMSWVRQAPGKGLEWVSIISGSGGFTYYADSVKGRFTISRDNSRTTLYLQMNSLRAEDTAVYYCAKDRLVAPGTFDYWGQGALVTVSS
VL: DIQMTQSPSSLSASVGDRVTITCRASQGISSWLAWYQQKPEKAPKSLIYAASSLQSGVPSRFSGSGSGTDFTLTISSLQPEDFATYYCQQYNSYPYTFGQGTKLEIKR

Assays:
[1] = target: T1, human OX40L protein (OX40L-his), Acro …; test: cell-based or functional assay
[2] = target: T1, human OX40L protein (OX40L-his), Acro …; test: SPR (Biacore T200), antibody captured by anti-hFc on CM5 chip, antigen as analyte
Protocol: A surface plasmon resonance (SPR) analysis was performed by using Bicore T200, and a running buffer used was HBS-EP (10 mM HEPES, pH7.4, 150 mM NaCl, 3 mM EDTA, […] surfactant P20). A human antibody capture kit (anti-hFc antibody) was fixed onto a surface of CM5 chip through an amine coupling method. […] An analytical sample was prepared with high purity/high concentration so that the minimum dilution factor could be 100 or more, thereby minimizing a buffer effect.

[3] = target: T1, human OX40L protein (OX40L-his), Acro …; test: cell-based or functional assay; remark: listed apart in the source
[4] = target: human TNFα (TNF-H5228 of Acro Biosystems) (human, UniProt P01375 77-233); test: cell-based or functional assay
Chain of human TNFα (TNF-H5228 of Acro Biosystems) (P01375 77-233 limits assumed): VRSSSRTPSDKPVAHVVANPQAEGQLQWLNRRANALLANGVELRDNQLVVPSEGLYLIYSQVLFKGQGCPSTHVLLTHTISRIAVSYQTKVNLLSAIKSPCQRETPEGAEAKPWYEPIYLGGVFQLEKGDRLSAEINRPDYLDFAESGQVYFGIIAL

Binder | IC50 (nM), OX40L blockade assay (luminescence of NFκB-luc2/OX40 Jurkat cells) [1] [nM] | IC50(µg/mL), OX40L blockade assay (luminescence of NFκB-luc2/OX40 Jurkat cells) [1] [µg/mL] | Kd [2] [nM] | IC50 (nM), OX40L blockade assay (luminescence of NFκB-luc2/OX40 Jurkat cells) [3] [nM] | IC50 (nM), TNFα blockade assay (luminescence of NFκB-RE HEK293 cells) [4] [nM] | koff [2] [s⁻¹] | kon [2] [M⁻¹ s⁻¹]
B1 | 0.59 | 0.117 | 0.472 |  |  |  | 
B2 | 0.21 | 0.041 | 0.45 |  |  |  | 
B3 |  |  |  | 0.91 | 0.055 |  | 
B4 | 0.2 | 0.03 | 0.282 |  |  | 0.000357 | 1.27e+06
B5 | 0.41 | 0.061 | 0.295 |  |  | 0.000498 | 1.69e+06
B6 | 0.85 | 0.128 | 0.603 |  |  | 0.00065 | 1.08e+06
B7 | 1.95 | 0.293 |  |  |  |  | 

— patent US20240270859A1 (HK INNO N, published 2024)
